Series [1] relates to A549 cells. Kind of series: FACS profile of MGT #1 expression and cell morphology. Format: cell-based, human. As to the method:
FACS analysis: Analysis was performed with FlowJo_V10.

For the next series, the system named is A549-MGT #1low cells. The series is described as follows: Cytokine screening, microplate reader MGT #1 fluorescence. Particulars: cytokine combined with GSK126. Type of series: cell-based, human. As to the method:
Phenotypic screening: Tumor cells were propagated as described above until the screening. Then we seeded 15′000/50 μl/well in 384 well plates (Corning), in Gibco FluoroBrite DMEM medium supplemented with the appropriate growth factors. Cells were dispensed as 50 μl suspension into each well using the SPARK20M Injector system (50 μl injection volume; 100 μl/s injection speed). For non-adherent cells (e.g. GICs), cells were further centrifuge at 1500 rpm for 1 h30 min at 37° C. Bottom reading fluorescence was scanned using a SPARM 20M TECAN plate reader at 37° C. in a 5% CO2-95% air (3% for GICs) in a humidified cassette, with the following settings for mVenus: Monochromator, Ex 505 nm±20 nm, Em 535 nm±7.5 nm, manual gain:198, flashes: 35, Integration time:40 μs. In independent replicas, cell viability was measured with 0.02% AlamarBlue solution in FluoroBrite medium with the following settings: Fluorescence Top reading. Monochromator, Ex 565 nm±10 nm, Em 592 nm±10 nm, manual gain: 88, flashes: 30, Integration time:40 μs.
DMSO-soluble compounds such as GSK126, were robotically aliquoted using a D300e, whereas cytokines were robotically aliquoted to each well using an Andrew pipetting robot (AndrewAlliance), using the following concentrations:
To exploit Ezh2 inhibition and MGT #1 as a framework to clarify the signaling basis of EMT in NSCLC cells, we next performed a cytokine screening in GSK126- and vehicle-treated A549-MGT #1^low cells.

For series [2], the system named is A549 cells. The series is described as follows: IncuCyte longitudinal MGT #1 fluorescence. Format: cell-based, human. Particulars: GSK126 together with TGFB signaling. The method, then: IncuCyte: IncuCyte automated longitudinal imaging was performed in 96 wells black walls plates (Greiner). 300,000 cells per plate were seeded to reach optimal confluence at the end of the experiment. GSK126 was aliquoted using a D300e, whereas TGFB1+2 were manually aliquoted to each well. Both were refreshed every second day. The last timepoint was independently verified using a plate reader (BMC Clariostar).
Ezh2 inhibition can support Kras-driven EMT in several mouse and human lung cancer cells^41. In this setting, we tested the use of sLCRs in reflecting cellular and molecular responses to biological and chemical stimuli.

Series [3] has as its system MES-hGICs-MGT #1dim xenografts. Kind of series: Orthotopic glioma xenograft, genetic tracing of MGT #1. Type of series: in vivo, NSG mice. As to the method: Tissue dissection and Cell surface staining: Brain tumor dissection was previously described in detail^77. Briefly, the tissue was dissected with a scalpel, digested in Accutase/DNasel (947 μl Accutase, 50 μl DNase I Buffer, 3 μl DNase I) at 37° C. until needed. Filtered through a 120 μm cell strainer first and a 40 μm cell strainer before RBC lysis (NH4Cl, 155 mM; KHCO3, 10 mM; EDTA, pH 7.4, 0.1 mM). After washing in cold PBS, viability and cell count were assessed automatically with 0.4% Trypan Blue staining using a TECAN SPARK20M.
When surface markers were assessed, typically, 200.000 cells/antibody were used in 15 ml Falcons. Staining volume was 50 μl in RHB-A medium with primary antibody (e.g. CD133-APC; Miltenyi), on ice, in the dark, for 30′. […] Depending on whether cells were analyzed or sorted, data acquisition was performed on the BD LSRFortessa or cells were sorted using the BD Aria II or a Astrios Moflo. The appropriate laser-filter combinations were chosen depending on the fluorophores being analyzed. Typically, to remove dead cells, events were first gated on the basis of shape and granularity (FSC-SSC), and we used as viability dyes either AnnexinV or LIVE/DEAD Fixable Aqua Dead Cell Stain Kit (depending on the fluorophores being analyzed). […]
We intracranially transplanted MES-hGICs-MGT #1^dim cells into NSG mice and longitudinally monitored tumor formation. […]

The subject of another series is MCF7 cells. Kind of series: FACS of MGT #1 expression in breast cancer cells. Type of series: cell-based. As to the method: (§1) The MCF7, MDA-231, A549 and H1944, cell lines (kindly provided by the Rene Bernards lab, NKI) were cultured in RPMI medium. All cell lines were supplemented with 10% FBS, and 5% penicillin and streptomycin at 37° C. in a 5% CO2-95% air incubator.
(§2) Tumor subtypes are genetically engraved in breast cancer cells^40. […] To confirm that MGT #1 expression reflects that actual breast cancer subtype identity, we FACS sorted and sub-cloned the top MCF7-MGT #1 and the mid MDA-231-MGT #1 expressing cells. Nevertheless, further propagation of the FACS-sorted populations reestablished pre-sorting homeostasis, with MCF7 expressing lower levels of MGT #1 than MDA-231.

The test system of a further series is MES-hGICs and PN-hGICs. The series is described as follows: FACS of basal sLCR expression in hGICs. Type of series: cell-based, human. The following applies: growth-factor defined conditions in vitro. The method, then:
FACS sorting: Transduced hGICs were harvested into single cell suspensions and resuspended into cold RHB-A complete and filtered into FACS tubes. Sorting was conducted using BD FACSAria III or Fusion. The appropriate laser-filter combinations were chosen depending on the fluorophores being sorted for. Typically, to remove dead cells, events were first gated on the basis of shape and granularity (FSC-A vs. SSC-A) and doublets were excluded (FSC-A vs. FSC-H). Positive gates were established on PGK-driven and constitutively expressed H2B-CFP as sorting reporter, to sort for populations with low to medium intensity of sLCR-dependent fluorophore expression.
Next, we transduced Proneural (PNGT #1-2) and Mesenchymal (MGT #1-2) sLCRs lentiviral particles into spontaneously immortalized human neural progenitor cells that acquired high copy number of PDGFRA, c-Myc and CDK4. To recapitulate the common PN and MES GBM genetic backgrounds, we further engineered hGICs to be depleted of PTEN and either bear IDH1^R132 and TP53^R273H point mutations or be further depleted of TP53 and NF1, thereby generating PN-hGICs and MES-hGICs, respectively. These cells show DNA methylation profiles similar to GBM patients and acquire subtype-specific gene-expression in vivo and therefore represent two distinct GBM subtypes.

The subject of the next series is T98G cell line. Kind of series: sLCR-mCherry reporter expression and reprogramming in a glioma cell line. Type of series: cell-based. Particulars: transient over-expression of SALL3, SOX2 and POU3F2. The method, then:
The T98G and U87MG (kindly provided by the van Tellingen lab, NKI) were propagated in EMEM medium. For the experiments in FIG. 13a, T98G were switched to RHB-A supplemented with EGF (20 ng ml-1), bFGF (20 ng ml-1), heparin (1 μg ml-1) and 5% penicillin and streptomycin and propagated first on standard tissue culture-treated plastic, then in ultra-low binding plastic (CORNING).
The Proneural GBM is thought to represent the common GBM ancestor subtype and also to reflect an oligodendrocytic cell-of-origin^26′^37. […] To test whether a PN sLCR would mirror the Proneural state, we decided to induce reprogramming of a FBS-driven conventional cell line into a PN-GICs using the master TFs underlying the PN identity^38. To this end, we transduced either MGT #1 or PNGT #2 into the T98G cell line, which is characterized by TP53 mutations (https://portals.broadinstitute.org/ccle), which are more likely to be associated with a PN phenotype^16. […] Of note, these set of experiments were conducted with a mCherry fluorescent protein carrying a nuclear localization signaling, thereby excluding that the fluorescent protein intensity (mCherry is brighter than mVenus), localization and stability (mVenus is transmembrane and stabilized) play a major role in the observed phenotypic transitions.

Another series deals with MDA-231 cells. The series is described as follows: FACS of MGT #1 expression in breast cancer cells. Format: cell-based. The following applies: short-term treatment. The method, then:
as §1, §2

As for `CC[C@H](C)n1cc(C)c2c(C(=O)NCc3c(C)cc(C)[nH]c3=O)cc(-c3ccc(N4CCNCC4)nc3)cc21` [GSK126], in the series on A549 cells [1] (combination of TGFB signaling and GSK126), the “MGT #1 activation by flow cytometry” value is recorded as “synergistically induce MGT #1 activation”. Moreover, in the series with A549 cells [1] (single treatment), the cell morphology change result was “did not induce a cellular morphology changes”. In the series with A549 cells [1] (single treatment, early time point), the “MGT #1 expression by flow cytometry” value is reported as “induces molecular transitions to a similar extent”. The “MGT #1 expression, fluorescence output” value with A549-MGT #1low cells was “modest additive effect”. Moreover, the “MGT #1 fluorescence, longitudinal measurement” value in the series with A549 cells [2] was “cooperatively induced”.

B1: MGT #1: subtype-specific sLCR for mesenchymal glioblastoma (MES-GBM) (nucleic acid)
chain: ATATTTATTTTTAGGACCAGAAAGTTAAAGTGAATTGGATTTGATCCATTTTCTGAAAGGCTGGCAAGAATTCTTGACATTGCACAGGAATTTCCATGTCAGCATGTTCTCACATGTATGATCTAATTTAGAGATTATTTTGGGGGGCGGGGGTTGAGGAAATGGCATGACTCAGAGTTTAAAAGCCCCAAATCTTAGCTGTGCCTGTGTAGCTTTACCACATAACCCATTGATAACTTAGTTGTGCAACCATCACCACCATCTGTTTTCAGAACTCTTTTCATTTTGCGAAACTGAAACCCGTTAAGCACTGATTTCCCACTCTCCCTCCTCCCAGCCCATAGCAAACCACCATCCCACCAGCACTTTCATTTCGCAAATGGCAAAACTGAAGCCGATATTGTGGTTGTGACTTATCCCAAAGTAATATACACATAAACCTCTATGGATGAGGAAAAAGACAGAGGGAAACTAAAAATTCAAAAGAACAAATTTGACTCACAGATTTGCTGACTCATAGTTGTGACACTTCCTGGCTCAGGAAGTTGAATTTCATTAAGCCTTTGTGGTTTGGGGCTCTGCTGTGCTTTGACAGCTCTGATCTCCTCCCTTCCGGCTGGGCTGTCTGGGGCGCTCTAAAATGAGTGTTGATTTAATGCACTGCCTTCGCACCCGTGCTGGTGCGTCCCGGGGACAGGGGTGGCTGTGCGGTGCCGCGGCGGCCGGCGGGGCTCCTTCCCCAGCAGGGGTGGGGACGCTGAGTCACGGATCTGTCACCGCTTTGCACCTCTCCGAGCCCTCGGGGGCCAAAGCAAAAGCGAAAGCGA
modifications: sLCR
In the case of B1, in series [3] (intracranial transplant, n=10, humane end point), the “distribution of MGT #1 expressing cells in the tumor (immunohistochemical staining)” value was “well confined within the invasive front”. In series [3] (xenograft-derived tumor cells), the “endogenous mVenus fluorescence by flow cytometry, in vivo vs in vitro” value is “vast majority of the tumor cells switched to a MGT #1^low or dark state”. Further, the “basal MGT #1 expression” value in the series on MCF7 cells (after lentiviral transduction) is recorded as “lower MGT #1 expression compared to MDA-231 cells”. Besides, in the series with MES-hGICs and PN-hGICs, the “basal sLCR expression” value was “higher basal expression in MES-hGICs compared to PN-hGICs”. For the same molecule, the “sLCR reporter expression upon master TFs” value in the series with T98G cell line is “neutral to MGT #1 expression”.

B2: TGFB2: EMT inducer (protein, UniProt P61812 303-414, looked up)
Transforming growth factor …: ALDAAYCFRNVQDNCCLRPLYIDFKRDLGWKWIHEPKGYNANFCAGACPYLWSSDTQHSRVLSLYNTINPEASASPCCVSQDLEPLTILYYIGKTPKIEQLSNMIVKSCKCS
B2: the “change of basal MGT #1 fluorescence” value in the series on MDA-231 cells and with MCF7 cells (short-term treatment) was “did not strongly modify the basal MGT #1 fluorescence” throughout.

The values are drawn from patent US20210343368A1, “Method for Engineering Synthetic Cis-Regulatory DNA” (Max-Delbrück-Centrum für Molekulare Medizin in der …, priority 2018, published 2021).
